Experimental data as given in patent publication US20240116985A1 (published 2024).
Starred links: 1 amine or outer side, 2 acyl side, 3 side chain; linkers in the order of their positions; H or OH if unused. Positions of bridges follow the written chain, without caps; N, C: chain ends. Non-standard residues stand in square brackets, D forms with d. Primed or numbered codes have the meaning given here. *: point of attachment. PyrS2″ = (S)-3-amino-1-((pent-4-en-1-yloxy)carbonyl)pyrrolidine-3-carboxylic acid (stapling residue), C=CCCCOC(=O)N1CC[C@@](N[*:1])(C(=O)[*:2])C1; B5(4) = 2,2-bis(4-pentenyl)glycine = 2-amino-2-(pent-4-en-1-yl)hept-6-enoic acid (stitching residue), C=CCCCC(CCCC=C)(N[*:1])C(=O)[*:2]; B5(5) = 2,2-bis(4-pentenyl)glycine, 2-amino-2-(pent-4-en-1-yl)hept-6-enoic acid (stitching residue), C=CCCCC(CCCC=C)(N[*:1])C(=O)[*:2]; PyrS2 = (S)-3-amino-1-((pent-4-en-1-yloxy)carbonyl)pyrrolidine-3-carboxylic acid, C=CCCCOC(=O)N1CC[C@@](N[*:1])(C(=O)[*:2])C1; PyrS1 = (S)-3-amino-1-((but-3-en-1-yloxy)carbonyl)pyrrolidine-3-carboxylic acid, C=CCCOC(=O)N1CC[C@@](N[*:1])(C(=O)[*:2])C1; B5(12) = 2-amino-2-(pent-4-en-1-yl)hept-6-enoic acid (two olefin side chains), C=CCCCC(CCCC=C)(N[*:1])C(=O)[*:2]; B5(19) = 2-amino-2-(pent-4-en-1-yl)hept-6-enoic acid (bis(4-pentenyl)glycine), C=CCCCC(CCCC=C)(N[*:1])C(=O)[*:2]; B5(3) = 2,2-bis(4-pentenyl)glycine (stitching residue), C=CCCCC(CCCC=C)(N[*:1])C(=O)[*:2]; Phe(3-COOH) = N[C@@H](Cc1cccc(C(=O)O)c1)C(=O)O; Phe(2-Cl) = N[C@@H](Cc1ccccc1Cl)C(=O)O; Phe(3-F) = N[C@@H](Cc1cccc(F)c1)C(=O)O; Bta = N[C@@H](Cc1csc2ccccc12)C(=O)O; Lys(iPr) = CC(C)NCCCC[C@H](N)C(=O)O; αAllylPro = C=CC[C@@]1(C(=O)O)CCCN1; tBuAla = CC(C)(C)C[C@H](N)C(=O)O; 3Thi = N[C@@H](Cc1ccsc1)C(=O)O; S8 = C=CCCCCCC[C@](C)(N)C(=O)O; Thr(ol) = C[C@@H](O)[C@H](N)CO; Cba = N[C@@H](CC1CCC1)C(=O)O; PyrS2(4) = not defined here; Prolinol = OC[C@@H]1CCCN1*

T1: B-cat-Halo (beta-catenin HaloTag NanoBRET construct expressed in HEK293 cells) (UniProt P35222 1-781)
T1 sequence (looked up): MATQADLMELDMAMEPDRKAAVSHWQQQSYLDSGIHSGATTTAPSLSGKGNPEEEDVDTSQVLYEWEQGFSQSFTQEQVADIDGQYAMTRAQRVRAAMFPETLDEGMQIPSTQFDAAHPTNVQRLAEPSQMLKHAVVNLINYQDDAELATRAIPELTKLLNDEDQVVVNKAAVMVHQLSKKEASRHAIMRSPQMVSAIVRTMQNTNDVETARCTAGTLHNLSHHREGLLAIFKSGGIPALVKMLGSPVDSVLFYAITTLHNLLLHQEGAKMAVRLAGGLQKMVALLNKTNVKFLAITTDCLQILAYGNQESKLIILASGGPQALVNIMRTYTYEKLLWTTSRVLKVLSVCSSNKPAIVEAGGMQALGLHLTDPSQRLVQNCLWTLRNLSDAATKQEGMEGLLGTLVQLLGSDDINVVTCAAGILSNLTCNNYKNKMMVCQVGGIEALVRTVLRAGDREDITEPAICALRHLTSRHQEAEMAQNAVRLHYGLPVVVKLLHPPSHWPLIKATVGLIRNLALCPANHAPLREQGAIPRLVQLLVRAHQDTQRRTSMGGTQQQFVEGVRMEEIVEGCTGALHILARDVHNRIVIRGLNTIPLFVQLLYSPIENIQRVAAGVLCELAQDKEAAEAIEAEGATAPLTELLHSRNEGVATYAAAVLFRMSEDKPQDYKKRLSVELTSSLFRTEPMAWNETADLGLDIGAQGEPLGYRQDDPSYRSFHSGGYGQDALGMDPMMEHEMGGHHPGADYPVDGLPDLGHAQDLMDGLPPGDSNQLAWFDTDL

T2: B-cat-Halo (beta-catenin HaloTag NanoBRET construct expressed in HEK293 cells) (UniProt P35222 1-781, HaloTag NanoBRET 618 Ligand bound in the assay)
T2 sequence (looked up): T1 sequence (looked up)

T3: beta-catenin, full-length (Uniprot ID P35222) (Homo sapiens (Human), UniProt P35222 2-781)
T3 construct: tags are not described; also called bCat; B-Catenin
T3 sequence: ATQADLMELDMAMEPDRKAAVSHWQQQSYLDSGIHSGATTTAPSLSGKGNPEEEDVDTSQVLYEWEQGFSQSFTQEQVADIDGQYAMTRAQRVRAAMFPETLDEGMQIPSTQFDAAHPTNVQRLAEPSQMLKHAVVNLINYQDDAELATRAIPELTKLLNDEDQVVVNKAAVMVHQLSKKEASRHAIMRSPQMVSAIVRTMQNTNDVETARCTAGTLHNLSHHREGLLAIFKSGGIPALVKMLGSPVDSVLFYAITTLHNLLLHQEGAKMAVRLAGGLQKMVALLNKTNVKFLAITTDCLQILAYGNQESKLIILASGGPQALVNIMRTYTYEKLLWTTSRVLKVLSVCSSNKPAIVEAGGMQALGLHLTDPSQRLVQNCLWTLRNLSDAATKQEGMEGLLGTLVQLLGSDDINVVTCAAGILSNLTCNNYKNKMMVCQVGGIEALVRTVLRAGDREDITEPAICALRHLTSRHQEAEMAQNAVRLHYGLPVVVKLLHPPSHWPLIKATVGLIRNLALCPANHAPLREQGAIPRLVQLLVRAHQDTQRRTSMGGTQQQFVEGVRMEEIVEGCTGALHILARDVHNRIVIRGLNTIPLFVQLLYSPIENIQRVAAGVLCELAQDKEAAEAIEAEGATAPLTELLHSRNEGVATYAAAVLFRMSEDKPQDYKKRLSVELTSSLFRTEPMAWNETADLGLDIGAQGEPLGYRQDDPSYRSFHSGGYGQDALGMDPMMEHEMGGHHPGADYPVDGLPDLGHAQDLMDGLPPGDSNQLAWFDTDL

B1: I-1911 (peptide)
peptide: Ac-[αAllylPro]D[tBuAla][B5(12)]D[Phe(3-COOH)]KAFL[PyrS2(4)][3Thi][Bta]F-NH2
modifications: staple 1-4, 4-11; not fully specified; printed as Ac-PL3-Asp-Npg-B5-Asp-3COOHF-Lys-Ala-Phe-Leu-PyrS2-3Thi-BztA-Phe-NH2; reading uncertain
B2: I-1890 (peptide)
peptide: Ac-[αAllylPro]D[tBuAla][B5(5)]DRAAFN[PyrS2][3Thi][Bta]Q-NH2
modifications: staple 1-4, 4-11; not fully specified; printed as Ac-PL3-Asp-Npg-B5-Asp-Arg-Ala-Ala-Phe-Asn-PyrS2-3Thi-BztA-Gln-NH2
B3: I-1906 (peptide)
peptide: Ac-[αAllylPro]D[tBuAla][B5(12)]D[Phe(3-COOH)]AAFL[PyrS2(4)][Phe(2-Cl)][Bta]S-Prolinol
modifications: staple 1-4, 4-11; not fully specified; printed as Ac-PL3-Asp-Npg-B5-Asp-3COOHF-Ala-Ala-Phe-Leu-PyrS2-2C1F-BztA-Ser-Prool; reading uncertain
B4: I-1904 (peptide)
peptide: Ac-[αAllylPro]D[tBuAla][B5(12)]D[Phe(3-COOH)]AAFL[PyrS2(4)][Phe(2-Cl)][Bta]N-NH2
modifications: staple 1-4, 4-11; not fully specified; printed as Ac-PL3-Asp-Npg-B5-Asp-3COOHF-Ala-Ala-Phe-Leu-PyrS2-2C1F-BztA-Asn-NH2; reading uncertain
B5: I-1909 (peptide)
peptide: Ac-[αAllylPro]D[tBuAla][B5(12)]D[Phe(3-COOH)][Lys(iPr)]AFL[PyrS2(4)][3Thi][Bta]F-NH2
modifications: staple 1-4, 4-11; not fully specified; printed as Ac-PL3-Asp-Npg-B5-Asp-3COOHF-iPrLys-Ala-Phe-Leu-PyrS2-3Thi-BztA-Phe-NH2; reading uncertain
B6: I-1901 (peptide)
peptide: Ac-[αAllylPro]D[tBuAla][B5(5)]D[Phe(3-COOH)]SAFL[PyrS2][Phe(2-Cl)][Bta]S-NH2
modifications: staple 1-4, 4-11; not fully specified; printed as Ac-PL3-Asp-Npg-B5-Asp-3COOHF-Ser-Ala-Phe-Leu-PyrS2-2C1F-BztA-Ser-NH2
B7: I-1891 (peptide)
peptide: Ac-[αAllylPro]D[tBuAla][B5(5)]DRAAFN[PyrS2][3Thi][Bta]Q-NH2
modifications: staple 1-4, 4-11; not fully specified; printed as Ac-PL3-Asp-Npg-B5-Asp-Arg-Ala-Ala-Phe-Asn-PyrS2-3Thi-BztA-Gln-NH2
B8: I-1902 (peptide)
peptide: Ac-[αAllylPro]D[tBuAla][B5(5)]D[Phe(3-COOH)]SAFL[PyrS2(4)][Phe(2-Cl)][Bta]S-NH2
modifications: staple 1-4, 4-11; not fully specified; printed as Ac-PL3-Asp-Npg-B5-Asp-3COOHF-Ser-Ala-Phe-Leu-PyrS2-2C1F-BztA-Ser-NH2; reading uncertain
B9: I-1898 (peptide)
peptide: Ac-[αAllylPro]D[tBuAla][B5(5)]D[Phe(3-COOH)]AAFL[PyrS2][Cba][Bta]S-NH2
modifications: staple 1-4, 4-11; not fully specified; printed as Ac-PL3-Asp-Npg-B5-Asp-3COOHF-Ala-Ala-Phe-Leu-PyrS2-Cba-BztA-Ser-NH2
B10: I-1910 (peptide)
peptide: Ac-[αAllylPro]D[tBuAla][B5(12)]D[Phe(3-COOH)]HAFL[PyrS2(4)][3Thi][Bta]F-NH2
modifications: staple 1-4, 4-11; not fully specified; printed as Ac-PL3-Asp-Npg-B5-Asp-3COOHF-His-Ala-Phe-Leu-PyrS2-3Thi-BztA-Phe-NH2; reading uncertain
B11: I-1903 (peptide)
peptide: Ac-[αAllylPro]D[tBuAla][B5(12)]D[Phe(3-COOH)]AAFS[PyrS2(4)][Phe(2-Cl)][Bta]S-NH2
modifications: staple 1-4, 4-11; not fully specified; printed as Ac-PL3-Asp-Npg-B5-Asp-3COOHF-Ala-Ala-Phe-Ser-PyrS2-2C1F-BztA-Ser-NH2; reading uncertain
B12: I-1912 (peptide)
peptide: Ac-[αAllylPro]D[tBuAla][B5(5)]D[Phe(3-COOH)]QAFL[PyrS2(4)][3Thi][Bta]F-NH2
modifications: staple 1-4, 4-11; not fully specified; printed as Ac-PL3-Asp-Npg-B5-Asp-3COOHF-Gln-Ala-Phe-Leu-PyrS2-3Thi-BztA-Phe-NH2; reading uncertain
B13: I-1905 (peptide)
peptide: Ac-[αAllylPro]D[tBuAla][B5(12)]D[Phe(3-COOH)]AAFL[PyrS2(4)][Phe(2-Cl)][Bta]S[Thr(ol)]
modifications: staple 1-4, 4-11; not fully specified; printed as Ac-PL3-Asp-Npg-B5-Asp-3COOHF-Ala-Ala-Phe-Leu-PyrS2-2C1F-BztA-Ser-Thro1; reading uncertain
B14: I-1813 (peptide)
peptide: Ac-[αAllylPro]D[tBuAla][B5(19)]DDAAFN[PyrS1][3Thi][Bta]Q-NH2
modifications: staple 1-4, 4-11; not fully specified; printed as Ac-PL3-Asp-Npg-B5-Asp-Asp-Ala-Ala-Phe-Asn-PyrS1-3Thi-BztA-Gln-NH2
B15: I-1815 (peptide)
peptide: Ac-[αAllylPro]D[tBuAla][B5(19)]DDAAFL[PyrS1][3Thi][Bta]Q-NH2
modifications: staple 1-4, 4-11; not fully specified; printed as Ac-PL3-Asp-Npg-B5-Asp-Asp-Ala-Ala-Phe-Leu-PyrS1-3Thi-BztA-Gln-NH2
B16: I-291: Ac-PL3-Asp-Ala-B5-Asp-Asp-Ala-Ala-Phe-Val-S8-Phe-Trp-Ala-NH2 (peptide)
peptide: XDAXDDAAFVXFWA
modifications: not fully specified; N-terminal Ac; PL3 at 1, B5 at 4, S8 at 11 (olefin-metathesis staples 1-4 and 4-11); C-terminal amide
notes: Stapled (stitched) peptide
B17: I-285: Ac-PL3-Asp-Ala-B5-Asp-Asp-Ala-Ala-Phe-Val-S8-His-Trp-Gln-NH2 (peptide)
peptide: XDAXDDAAFVXHWQ
modifications: not fully specified; N-terminal Ac; PL3 at 1, B5 at 4, S8 at 11 (olefin-metathesis staples 1-4 and 4-11); C-terminal amide
notes: Stapled (stitched) peptide
B18: I-286: Ac-PL3-Asp-Ala-B5-Asp-Asp-Ala-Ala-Phe-Ala-S8-Phe-Trp-Ala-NH2 (peptide)
peptide: XDAXDDAAFAXFWA
modifications: not fully specified; N-terminal Ac; PL3 at 1, B5 at 4, S8 at 11 (olefin-metathesis staples 1-4 and 4-11); C-terminal amide
notes: Stapled (stitched) peptide

Target: T1, B-cat-Halo (beta-catenin HaloTag …)
Assay: cell-based or functional assay

NanoBRET Abs IC50 [µM]	Binder
> 20	B1
> 20	B2
15.5	B3
4.2	B4
> 20	B5
4.9	B6
> 20	B7
7.7	B8
10.9	B9
13.8	B10
6.4	B11
11.5	B12
9.7	B13

Target: T2, B-cat-Halo (beta-catenin HaloTag …)
Assay: cell-based or functional assay

NanoBRET Abs IC50 [µM]	Binder
14	Ac-[αAllylPro]D[tBuAla][B5(3)]DDAAFL[PyrS2″][3Thi][Bta]Q-NH2 (staple 1-4, 4-11; also: staple olefins reduced to -CH2-CH2-) [I-1808]
> 20	B14
> 20	B15

Target: T3, beta-catenin, full-length (Uniprot ID …)
Assay: fluorescence polarization competition, displacement of 5FAM-TCF4 10-53 from full-length beta-catenin
Protocol: The plate was incubated protected from light for 60 minutes at 20° C. prior to read. Reads were performed on a CLARIOstar plate reader (BMG Labtech) in duplicate, and data were fitted to a 1:1 binding model with hill slope using an in-house script. All provided concentrations are final concentrations.

IC50 [µM]	Binder
3.76	Ac-[αAllylPro]DA[B5(4)]DDAA[Phe(3-F)]V[S8]FWQ-NH2 (staple 1-4, 4-11; also: staple isomer composition, later HPLC peak, Stapled (stitched) peptide) [I-265: Ac-PL3-Asp-Ala-B5-Asp-Asp-Ala-Ala-3FF-Val-S8-Phe-Trp-Gln-NH2]
3.13	B16
5	B17
4.48	B18
